This passage reports interaction score results from article PMC10397247.

Where two headings read alike, the source gives them in different places.

Holding throughout (test): two-hybrid library CCmax;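 further: natural log of median RNA to DNA barcode read ratio; higher means stronger binding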
The target of one assay is T1, P6-AA-1HAA-L.
T1 chain: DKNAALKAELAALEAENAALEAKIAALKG
Particulars: mean of both orientations.

The next assay addresses T2, P6-AA-1HAA-K.
T2 chain: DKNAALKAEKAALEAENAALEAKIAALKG
Particulars: mean of both orientations.

The target of another assay is T3, P6-AA-1HAA-E.
T3 chain: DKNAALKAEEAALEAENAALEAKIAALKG
The following applies: mean of both orientations.

A further assay has as its target T4, P6-AA-1HAA-S.
T4 chain: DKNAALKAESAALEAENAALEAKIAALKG
The following applies: mean of both orientations.

The next assay has as its target T5, P6-AA-1HAA-N.
T5 chain: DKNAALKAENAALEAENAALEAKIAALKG
Particulars: mean of both orientations.

A further assay concerns the target T6, P6-AA-1HAA-V.
T6 chain: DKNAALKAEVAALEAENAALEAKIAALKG
The following applies: mean of both orientations.

A further assay concerns the target T7, P6-AA-1HAA-H.
T7 chain: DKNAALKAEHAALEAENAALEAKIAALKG
Particulars: mean of both orientations.

The next assay concerns the target T8, P6-AA-1HAA-D.
T8 chain: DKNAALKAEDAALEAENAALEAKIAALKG
The following applies: mean of both orientations.

In a further assay the target is T9, P6-AA-1HAA-R.
T9 chain: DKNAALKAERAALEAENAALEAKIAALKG
Particulars: mean of both orientations.

The target in the next assay is T10, P6-AA-1HAA-Y.
T10 chain: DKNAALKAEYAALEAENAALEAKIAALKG
Particulars: mean of both orientations.

Another assay deals with T11, P6-AA-1HAA-T.
T11 chain: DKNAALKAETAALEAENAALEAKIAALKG
The following applies: mean of both orientations.

Another assay has as its target T12, P2-AA-12HAA-D.
T12 chain: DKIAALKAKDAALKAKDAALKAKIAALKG
Particulars: mean of both orientations.

A further assay concerns the target T13, P2-AA-12HAA-S.
T13 chain: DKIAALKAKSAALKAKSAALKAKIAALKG

Another assay addresses T14, P2-AA.
T14 chain: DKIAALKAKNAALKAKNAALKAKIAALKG
Particulars: mean of both orientations.

The next assay has as its target T15, P2-AA-12HAA-V.
T15 chain: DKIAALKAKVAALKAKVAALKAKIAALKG
Particulars: mean of both orientations.

A further assay concerns the target T16, P2-AA-12HAA-T.
T16 chain: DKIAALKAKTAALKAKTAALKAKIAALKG
Particulars: mean of both orientations.

The next assay concerns the target T17, P2-AA-12HAA-R.
T17 chain: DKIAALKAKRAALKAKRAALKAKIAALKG

The target in the next assay is T18, P2-AA-12HAA-L.
T18 chain: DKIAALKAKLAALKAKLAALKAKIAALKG

The next assay has as its target T19, P2-AA-12HAA-E.
T19 chain: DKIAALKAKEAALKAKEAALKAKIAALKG

Another assay has as its target T20, P2-AA-12HAA-K.
T20 chain: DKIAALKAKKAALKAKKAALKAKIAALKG
The following applies: mean of both orientations.

The target of another assay is T21, P2-AA-12HAA-H.
T21 chain: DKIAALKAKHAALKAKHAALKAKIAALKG
The following applies: mean of both orientations.

The target of a further assay is T22, P2-AA-12HAA-Y.
T22 chain: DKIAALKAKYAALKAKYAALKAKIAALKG
Particulars: mean of both orientations.

The next assay concerns the target T23, P2-AA-12HAA-I.
T23 chain: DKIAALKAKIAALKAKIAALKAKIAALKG
The following applies: mean of both orientations.

The target in a further assay is T24, P6-AA-12HAA-R.
T24 chain: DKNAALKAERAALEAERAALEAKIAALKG
Particulars: mean of both orientations.

For another assay, the target named is T25, P6-AA-12HAA-K.
T25 chain: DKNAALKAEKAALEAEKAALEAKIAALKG
The following applies: mean of both orientations.

The next assay concerns the target T26, P6-AA-12HAA-E.
T26 chain: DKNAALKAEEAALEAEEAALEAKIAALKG
Particulars: mean of both orientations.

The target in another assay is T27, P6-AA-12HAA-V.
T27 chain: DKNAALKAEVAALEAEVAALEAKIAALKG
The following applies: mean of both orientations.

The next assay deals with T28, P6-AA-12HAA-H.
T28 chain: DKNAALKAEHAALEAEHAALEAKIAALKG
The following applies: mean of both orientations.

The next assay addresses T29, P6-AA-12HAA-S.
T29 chain: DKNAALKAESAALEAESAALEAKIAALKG
Particulars: mean of both orientations.

In a further assay the target is T30, P6-AA-12HAA-D.
T30 chain: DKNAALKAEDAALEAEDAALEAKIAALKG
The following applies: mean of both orientations.

The target of a further assay is T31, P6-AA-12HAA-Y.
T31 chain: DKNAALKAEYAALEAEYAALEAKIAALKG
Particulars: mean of both orientations.

For another assay, the target named is T32, P6-AA-12HAA-L.
T32 chain: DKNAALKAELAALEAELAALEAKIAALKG
The following applies: mean of both orientations.

For another assay, the target named is T33, P6-AA-12HAA-T.
T33 chain: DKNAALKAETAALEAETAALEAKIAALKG
Particulars: mean of both orientations.

With DENAALEAKEAALKAKNAALKAEIAALEG [P5-AA-1HAA-E], the interaction score is 0.711 in the assay with P6-AA-1HAA-L; -1.41 in the assay with P6-AA-1HAA-K; -1.42 with P6-AA-1HAA-E; -1.13 with P6-AA-1HAA-S; -0.649 with P6-AA-1HAA-N; 1.57 with P6-AA-1HAA-V. The interaction score in the assay with P6-AA-1HAA-H is -1.76; with P6-AA-1HAA-D, -1.78; in the assay with P6-AA-1HAA-R, -1.33; in the assay with P6-AA-1HAA-Y it was -0.801; in the assay with P6-AA-1HAA-T it was -0.112.
As for DEIAALEAEYAALEAEYAALEAEIAALEG [P1-AA-12HAA-Y], the interaction score with P2-AA-12HAA-D was -0.93; with P2-AA-12HAA-S (mean of both orientations), 1.85; with P2-AA, 1.97; in the assay with P2-AA-12HAA-V, 1.72; with P2-AA-12HAA-T, 1.76; with P2-AA-12HAA-R (mean of both orientations), 1.4. Further, the interaction score was 2.1 in the assay with P2-AA-12HAA-L (mean of both orientations); 1.74 with P2-AA-12HAA-E; 1.89 with P2-AA-12HAA-K; 1.67 in the assay with P2-AA-12HAA-H; 2.02 with P2-AA-12HAA-Y; 1.8 with P2-AA-12HAA-I.
In the case of DEIAALEAESAALEAESAALEAEIAALEG [P1-AA-12HAA-S], the interaction score is -0.855 with P2-AA-12HAA-D; 1.26 in the assay with P2-AA-12HAA-S (mean of both orientations); 2.24 in the assay with P2-AA; 1.8 with P2-AA-12HAA-V; 0.962 with P2-AA-12HAA-T; 1.11 with P2-AA-12HAA-R (mean of both orientations). For the same molecule, the interaction score with P2-AA-12HAA-L (mean of both orientations) is 2.15; with P2-AA-12HAA-E it was -0.4; in the assay with P2-AA-12HAA-K, 0.951; in the assay with P2-AA-12HAA-H, 1.58; with P2-AA-12HAA-Y, 0.635; with P2-AA-12HAA-I it was 1.69.
Take DENAALEAKNAALKAKNAALKAEIAALEG [P5-AA-1HAA-N]: the interaction score in the assay with P6-AA-12HAA-R was -0.112; with P6-AA-12HAA-K it was -0.291; in the assay with P6-AA-1HAA-L, 1.05; in the assay with P6-AA-1HAA-K, 0.958; with P6-AA-1HAA-E, 0.442; in the assay with P6-AA-12HAA-E it was -0.844. Further, the interaction score was -0.62 in the assay with P6-AA-12HAA-V; 1.15 with P6-AA-1HAA-S; 2.27 with P6-AA-1HAA-N; 0.901 with P6-AA-12HAA-H; -0.405 in the assay with P6-AA-12HAA-S; 1.86 with P6-AA-1HAA-V. Also, the interaction score with P6-AA-12HAA-D was -1.55; in the assay with P6-AA-1HAA-H it was 1.2; with P6-AA-1HAA-D, -0.622; with P6-AA-12HAA-Y, 0.697; with P6-AA-12HAA-L, -0.372; in the assay with P6-AA-12HAA-T, -0.0689. Further, the interaction score in the assay with P6-AA-1HAA-R worked out at 0.871; with P6-AA-1HAA-Y, 1.5; with P6-AA-1HAA-T, 1.25.
Turning to DEIAALEAETAALEAETAALEAEIAALEG [P1-AA-12HAA-T], the interaction score in the assay with P2-AA-12HAA-D was -1.06; in the assay with P2-AA-12HAA-S (mean of both orientations), 1.33; with P2-AA, 2.07; with P2-AA-12HAA-V, 1.98; with P2-AA-12HAA-T, 1.56; with P2-AA-12HAA-R, 1.79. In addition, the interaction score with P2-AA-12HAA-L (mean of both orientations) turned out to be 1.97; with P2-AA-12HAA-E (mean of both orientations), 0.124; with P2-AA-12HAA-K it was 1.37; with P2-AA-12HAA-H, 1.5; with P2-AA-12HAA-Y it was 1.53; in the assay with P2-AA-12HAA-I, 1.84.
On to DENAALEAKHAALKAKNAALKAEIAALEG [P5-AA-1HAA-H], for which the interaction score in the assay with P6-AA-1HAA-L is 1.9; with P6-AA-1HAA-K, -0.495; with P6-AA-1HAA-E, -0.637; with P6-AA-1HAA-S, 0.88; with P6-AA-1HAA-N it was 1.97; in the assay with P6-AA-1HAA-V, 2.15. In addition, the interaction score with P6-AA-1HAA-H was -0.596; with P6-AA-1HAA-D, -0.238; with P6-AA-1HAA-R, -1.13; with P6-AA-1HAA-Y, 0.439; in the assay with P6-AA-1HAA-T, 1.49.
Turning to DEIAALEAELAALEAELAALEAEIAALEG [P1-AA-12HAA-L], the interaction score is 1.26 with P2-AA-12HAA-D; 1.59 with P2-AA-12HAA-S; 1.49 with P2-AA; 2.38 in the assay with P2-AA-12HAA-V; 2.1 with P2-AA-12HAA-T; 1.7 with P2-AA-12HAA-R (mean of both orientations). The interaction score with P2-AA-12HAA-L (mean of both orientations) stood at 2.35; in the assay with P2-AA-12HAA-E (mean of both orientations), 1.74; with P2-AA-12HAA-K it was 1.6; with P2-AA-12HAA-H, 1.84; in the assay with P2-AA-12HAA-Y, 1.68; with P2-AA-12HAA-I, 1.68.
As for DEIAALEAEKAALEAEKAALEAEIAALEG [P1-AA-12HAA-K], the interaction score with P2-AA-12HAA-D is -0.759; with P2-AA-12HAA-S (mean of both orientations), -0.0454; in the assay with P2-AA, 1.75; with P2-AA-12HAA-V, 1.38; in the assay with P2-AA-12HAA-T it was 0.253; with P2-AA-12HAA-R (mean of both orientations), -0.283. Besides, the interaction score with P2-AA-12HAA-L was 1.62; with P2-AA-12HAA-E (mean of both orientations) it was -0.226; with P2-AA-12HAA-K, -1.33; in the assay with P2-AA-12HAA-H it was 0.974; with P2-AA-12HAA-Y, 0.916; in the assay with P2-AA-12HAA-I it was 1.67.
Regarding DENAALEAKTAALKAKNAALKAEIAALEG [P5-AA-1HAA-T], the interaction score stood at 1.91 with P6-AA-1HAA-L; 0.498 with P6-AA-1HAA-K; 0.317 with P6-AA-1HAA-E; 0.78 in the assay with P6-AA-1HAA-S; 0.702 in the assay with P6-AA-1HAA-N; 2.01 with P6-AA-1HAA-V. For the same molecule, the interaction score in the assay with P6-AA-1HAA-H is 1.47; with P6-AA-1HAA-D, -0.594; with P6-AA-1HAA-R, 0.322; with P6-AA-1HAA-Y, 1.19; in the assay with P6-AA-1HAA-T it was 0.456.
DEIAALEAEEAALEAEEAALEAEIAALEG [P1-AA-12HAA-E]: the interaction score was -1.42 with P2-AA-12HAA-D; 0.789 with P2-AA-12HAA-S (mean of both orientations); 1.91 in the assay with P2-AA; 1.49 with P2-AA-12HAA-V; 0.375 in the assay with P2-AA-12HAA-T; 1.71 with P2-AA-12HAA-R (mean of both orientations). The interaction score is 1.82 with P2-AA-12HAA-L (mean of both orientations); -0.819 with P2-AA-12HAA-E (mean of both orientations); 1.62 in the assay with P2-AA-12HAA-K; 1.59 in the assay with P2-AA-12HAA-H; -0.0466 with P2-AA-12HAA-Y; 1.5 in the assay with P2-AA-12HAA-I.
